Residue numbers refer to the chain shown, from its start. Names may count otherwise.
B1: His-maltose-binding protein (MBP)-CHIP fusion protein, wild type, Q9UNE7-1 1-303 (enzyme)
chain: MKGKEEKEGGARLGAGGGSPEKSPSAQELKEQGNRLFVGRKYPEAAACYGRAITRNPLVAVYYTNRALCYLKMQQHEQALADCRRALELDGQSVKAHFFLGQCQLEMESYDEAIANLQRAYSLAKEQRLNFGDDIPSALRIAKKKRWNSIEERRIHQESELHSYLSRLIAAERERELEECQRNHEGDEDDSHVRAQQACIEAKHDKYMADMDELFSQVDEKRKKRDIPDYLCGKISFELMREPCITPSGITYDRKDIEEHLQRVGHFDPVTRSPLTQEQLIPNLAMKEVIDAFISENGWVEDY
B2: His-MBP-CHIP fusion protein, T246M (enzyme, human, UniProt Q9UNE7-1 1-303, looked up)
chain: B1 chain with T246M
notes: CHIP (STUB1), human, full-length cDNA in pETM-41, pathogenic SCAR16 variant T246M; Variant found in patients; made by site-directed mutagenesis; also called CHIP-T246M; MBP-CHIP T246M; source: E. coli BL21-CodonPlus (DE3)-RP, purified (Ni-NTA)
B3: His-MBP-CHIP fusion protein, N65S (enzyme, human, UniProt Q9UNE7-1 1-303, looked up)
chain: B1 chain with N65S
notes: CHIP (STUB1), human, full-length cDNA in pETM-41, pathogenic SCAR16 variant N65S; Variant found in patients; made by site-directed mutagenesis; also called CHIP-N65S; MBP-CHIP N65S; source: E. coli BL21-CodonPlus (DE3)-RP, purified (Ni-NTA)
B4: His-MBP-CHIP fusion protein, S236T (enzyme, human, UniProt Q9UNE7-1 1-303, looked up)
chain: B1 chain with S236T
notes: CHIP (STUB1), human, full-length cDNA in pETM-41, pathogenic SCAR16 variant S236T; Variant found in patients; made by site-directed mutagenesis; also called MBP-CHIP S236T; source: E. coli BL21-CodonPlus (DE3)-RP, purified (Ni-NTA)
B5: His-MBP-CHIP fusion protein, M211I (enzyme, human, UniProt Q9UNE7-1 1-303, looked up)
chain: B1 chain with M211I
notes: CHIP (STUB1), human, full-length cDNA in pETM-41, pathogenic SCAR16 variant M211I; Variant found in patients; made by site-directed mutagenesis; also called MBP-CHIP M211I; source: E. coli BL21-CodonPlus (DE3)-RP, purified (Ni-NTA)
B6: His-MBP-CHIP fusion protein, K145Q (enzyme, human, UniProt Q9UNE7-1 1-303, looked up)
chain: B1 chain with K145Q
notes: CHIP (STUB1), human, full-length cDNA in pETM-41, pathogenic SCAR16 variant K145Q; Variant found in patients; made by site-directed mutagenesis; also called MBP-CHIP K145Q; source: E. coli BL21-CodonPlus (DE3)-RP, purified (Ni-NTA)

How the values were obtained:
[1] = molecular target: T1, His-maltose-binding protein (MBP)-CHIP fusion protein, wild type (human), Q9UNE7; experiment: SEC; 1 mg MBP-CHIP fusion protein, Superdex 200 Increase 10/300 GL, 20 mM NaH2PO4 pH 7.4, 0.3 ml/min, 4°C; self-association (monomers, dimers, higher oligomers); conditions: remark: other sources report otherwise
T1 chain: B1 chain

[2] = molecular target: the molecule itself; experiment: native gel or EMSA; 10 ug MBP fusion protein on a 12% NativePAGE Bis-Tris gel, Coomassie Blue staining; self-association (oligomeric states)
[3] = molecular target: the molecule itself; experiment: SEC; 1 mg MBP-CHIP fusion protein, Superdex 200 Increase 10/300 GL, 20 mM NaH2PO4 pH 7.4, 0.3 ml/min, 4°C; self-association (monomers, dimers, higher oligomers)

Row | Binder | binding result [2] | other results
1 | B1 | – | stoichiometry N [1]: 2
2 | B2 | binds | –
3 | B3 | – | stoichiometry N [3]: 2
4 | B4 | binds | –
5 | B5 | binds | –
6 | B6 | binds | –
